Patent publication US20140087995A1 (published 2014)
Blank lines part the entries; values can stand above or below the binder they belong to. Numbered stars: 1 amine (or outer) side, 2 acyl side, 3 side chain; on linkers, the order of the positions; unused ones are H or OH. Bridge positions count the residues as written; N and C are the ends. Side chains are listed from the residue outwards. Ends that are not written are not given here. * marks the point of attachment. C20 diacid = O=C(O)CCCCCCCCCCCCCCCCCCC(=O)*; γGlu = O=C(O)[C@H](CCC(=O)[*:2])N[*:1]; AEEA = NCCOCCOCC(=O)O

Molecular target: T1, human calcitonin receptor (human, UniProt P30988 25-474)
T1 construct: whole, on cells; also called hCTR; hCT
T1 sequence (looked up): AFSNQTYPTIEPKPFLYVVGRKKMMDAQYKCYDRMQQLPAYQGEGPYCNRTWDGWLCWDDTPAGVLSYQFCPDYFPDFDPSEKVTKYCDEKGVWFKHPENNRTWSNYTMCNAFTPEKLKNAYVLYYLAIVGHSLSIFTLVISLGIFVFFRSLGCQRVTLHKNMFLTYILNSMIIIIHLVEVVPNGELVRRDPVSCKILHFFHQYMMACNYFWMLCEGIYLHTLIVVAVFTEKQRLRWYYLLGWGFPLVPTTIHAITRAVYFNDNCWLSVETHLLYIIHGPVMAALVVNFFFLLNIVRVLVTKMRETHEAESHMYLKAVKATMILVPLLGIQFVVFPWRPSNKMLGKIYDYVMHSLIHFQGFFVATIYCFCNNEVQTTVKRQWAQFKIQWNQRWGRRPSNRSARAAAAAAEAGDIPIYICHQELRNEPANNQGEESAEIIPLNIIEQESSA
Assay: SPA competition with 125I-calcitonin, membranes of BHK hCTR cells (Assay VII)
Method in brief: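 BHK hCTR membranes 35 ng/μL + SPA beads 0.05 mg/well; buffer 50 mM Hepes pH 7.4, 1 mM CaCl2, 5 mM MgCl₂, 0.1% OA, 0.02% Tween20. 120 min, 25° C., shaking. Scintillation count; IC50 by one-site binding competition.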

IC50: 1.53 nM
B1: N^ε1-[2-[2-[2-[[(4S)-4-carboxy-4-(19-carboxynonadecanoylamino)butanoyl]amino]ethoxy]ethoxy]acetyl]-[Gly14,Arg17,Pro21,Pro27,Pro31]-h-amylin (peptide)
peptide: K([AEEA-γGlu-C20 diacid])CNTATCATQRLAGFLRHSSPNFGAIPSSTPVGSNTY-NH2
modifications: disulfide 2-7; N-terminus assumed
SMILES: CC[C@H](C)[C@H](NC(=O)[C@H](C)NC(=O)CNC(=O)[C@H](Cc1ccccc1)NC(=O)[C@H](CC(N)=O)NC(=O)[C@@H]1CCCN1C(=O)[C@H](CO)NC(=O)[C@H](CO)NC(=O)[C@H](Cc1c[nH]cn1)NC(=O)[C@H](CCCNC(=N)N)NC(=O)[C@H](CC(C)C)NC(=O)[C@H](Cc1ccccc1)NC(=O)CNC(=O)[C@H](C)NC(=O)[C@H](CC(C)C)NC(=O)[C@H](CCCNC(=N)N)NC(=O)[C@H](CCC(N)=O)NC(=O)[C@@H](NC(=O)[C@H](C)NC(=O)[C@@H]1CSSC[C@H](NC(=O)[C@@H](N)CCCCNC(=O)COCCOCCNC(=O)CC[C@H](NC(=O)CCCCCCCCCCCCCCCCCCC(=O)O)C(=O)O)C(=O)N[C@@H](CC(N)=O)C(=O)N[C@@H]([C@@H](C)O)C(=O)N[C@@H](C)C(=O)N[C@@H]([C@@H](C)O)C(=O)N1)[C@@H](C)O)C(=O)N1CCC[C@H]1C(=O)N[C@@H](CO)C(=O)N[C@@H](CO)C(=O)N[C@H](C(=O)N1CCC[C@H]1C(=O)N[C@H](C(=O)NCC(=O)N[C@@H](CO)C(=O)N[C@@H](CC(N)=O)C(=O)N[C@H](C(=O)N[C@@H](Cc1ccc(O)cc1)C(N)=O)[C@@H](C)O)C(C)C)[C@@H](C)O
notes: also called compound 71

IC50: 8.11 nM
B2: N^ε1-[2-[2-[2-[[(4S)-4-carboxy-4-(19-carboxynonadecanoylamino)butanoyl]amino]ethoxy]ethoxy]acetyl]-[His14,Arg17,Pro21,Pro27,Pro31]-h-amylin (peptide)
peptide: K([AEEA-γGlu-C20 diacid])CNTATCATQRLAHFLRHSSPNFGAIPSSTPVGSNTY-NH2
modifications: disulfide 2-7; N-terminus assumed
SMILES: CC[C@H](C)[C@H](NC(=O)[C@H](C)NC(=O)CNC(=O)[C@H](Cc1ccccc1)NC(=O)[C@H](CC(N)=O)NC(=O)[C@@H]1CCCN1C(=O)[C@H](CO)NC(=O)[C@H](CO)NC(=O)[C@H](Cc1c[nH]cn1)NC(=O)[C@H](CCCNC(=N)N)NC(=O)[C@H](CC(C)C)NC(=O)[C@H](Cc1ccccc1)NC(=O)[C@H](Cc1c[nH]cn1)NC(=O)[C@H](C)NC(=O)[C@H](CC(C)C)NC(=O)[C@H](CCCNC(=N)N)NC(=O)[C@H](CCC(N)=O)NC(=O)[C@@H](NC(=O)[C@H](C)NC(=O)[C@@H]1CSSC[C@H](NC(=O)[C@@H](N)CCCCNC(=O)COCCOCCNC(=O)CC[C@H](NC(=O)CCCCCCCCCCCCCCCCCCC(=O)O)C(=O)O)C(=O)N[C@@H](CC(N)=O)C(=O)N[C@@H]([C@@H](C)O)C(=O)N[C@@H](C)C(=O)N[C@@H]([C@@H](C)O)C(=O)N1)[C@@H](C)O)C(=O)N1CCC[C@H]1C(=O)N[C@@H](CO)C(=O)N[C@@H](CO)C(=O)N[C@H](C(=O)N1CCC[C@H]1C(=O)N[C@H](C(=O)NCC(=O)N[C@@H](CO)C(=O)N[C@@H](CC(N)=O)C(=O)N[C@H](C(=O)N[C@@H](Cc1ccc(O)cc1)C(N)=O)[C@@H](C)O)C(C)C)[C@@H](C)O
notes: also called compound 61
